Two substances from US20240377408A1 can be followed below.

Among the targets are M64-AAEIR; M64-EAEIR; M64-DAEIR; M64-LAEIR; M64-FAEIR.
What all share (assay): cell-based or functional assay
For assay [1], the target named is human carbonic anhydrase 2 (wild-type hCAII) (Homo sapiens) (UniProt P00918).

Consider FAAAE (peptide), for which the IC50 (µM), hCAII functional assay (p-nitrophenyl acetate hydrolysis) in assay [1] was 152 µM.

On to “Carbonic anhydrase I, Homo sapiens (scaffold) (from UniProt P00915 5-261) (enzyme)”, for which the IC50 values (µM), colorimetric pNPA hydrolysis inhibition assay in the assay with M64-AAEIR worked out at 0.109 µM; with M64-EAEIR, 1.09 µM; with M64-DAEIR, 0.136 µM; with M64-LAEIR, 0.016 µM; with M64-FAEIR, 0.012 µM.
